In publication PMC8125067:

Target: T1, endogenous IRF3 of HEK293T cells (human (endogenous in HEK293T)), Q14653
T1 chain: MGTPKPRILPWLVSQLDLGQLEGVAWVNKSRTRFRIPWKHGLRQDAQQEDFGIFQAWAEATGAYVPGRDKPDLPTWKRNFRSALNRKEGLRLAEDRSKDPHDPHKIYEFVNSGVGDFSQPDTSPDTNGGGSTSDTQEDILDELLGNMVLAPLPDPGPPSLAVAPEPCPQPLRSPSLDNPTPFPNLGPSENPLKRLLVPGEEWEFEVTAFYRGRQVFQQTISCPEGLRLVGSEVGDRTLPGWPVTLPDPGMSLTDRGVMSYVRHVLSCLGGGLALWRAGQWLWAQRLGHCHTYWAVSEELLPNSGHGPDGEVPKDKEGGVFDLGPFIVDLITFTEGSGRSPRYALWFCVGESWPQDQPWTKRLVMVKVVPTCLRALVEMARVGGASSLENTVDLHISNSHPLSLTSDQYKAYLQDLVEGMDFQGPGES
Assay: native gel or EMSA; IRF3 dimer gel: lysate of HEK293T transfected 36 h with or without MDA5 and VP3; native PAGE, 25 mM Tris-HCl, 192 mM glycine, pH 8.4, 1% deoxycholate in the cathode chamber; blot with anti-IRF3
Settings: remark: other sources report otherwise

B1: endogenous IRF3 of HEK293T cells, Q14653 1-427 (natural protein)
chain: MGTPKPRILPWLVSQLDLGQLEGVAWVNKSRTRFRIPWKHGLRQDAQQEDFGIFQAWAEATGAYVPGRDKPDLPTWKRNFRSALNRKEGLRLAEDRSKDPHDPHKIYEFVNSGVGDFSQPDTSPDTNGGGSTSDTQEDILDELLGNMVLAPLPDPGPPSLAVAPEPCPQPLRSPSLDNPTPFPNLGPSENPLKRLLVPGEEWEFEVTAFYRGRQVFQQTISCPEGLRLVGSEVGDRTLPGWPVTLPDPGMSLTDRGVMSYVRHVLSCLGGGLALWRAGQWLWAQRLGHCHTYWAVSEELLPNSGHGPDGEVPKDKEGGVFDLGPFIVDLITFTEGSGRSPRYALWFCVGESWPQDQPWTKRLVMVKVVPTCLRALVEMARVGGASSLENTVDLHISNSHPLSLTSDQYKAYLQDLVEGMDFQGPGES
stoichiometry N: 2
